Paper PMC8580805 (Biophysical Reviews, 2021)
“And” between values parts separate entries of the source, which are not always exact repeats. Identical values can stand only once.

B2: photosynthetic GAPDH B-subunit from spinach (natural protein, UniProt P12860 84-451, looked up)
chain: KLKVAINGFGRIGRNFLRCWHGRKDSPLDVVVVNDSGGVKSATHLLKYDSILGTFKADVKIIDNETFSIDGKPIKVVSNRDPLKLPWAELGIDIVIEGTGVFVDGPGAGKHIQAGAKKVIITAPAKGSDIPTYVVGVNEKDYGHDVANIISNASCTTNCLAPFVKVLDEELGIVKGTMTTTHSYTGDQRLLDASHRDLRRARAAALNIVPTSTGAAKAVSLVLPQLKGKLNGIALRVPTPNVSVVDLVVNIEKVGVTAEDVNNAFRKAAAGPLKGVLDVCDIPLVSVDFRCSDFSSTIDSSLTMVMGGDMVKVVAWYDNEWGYSQRVVDLADLVANKWPGLEGSVASGDPLEDFCKDNPADEECKLYE

Legend:
[1] = biological target: insect Toll receptor ectodomain (insect (species not stated)) (UniProt P08953); test: biophysical and cellular analysis
[2] = biological target: the molecule itself; test: SEC-SAXS + cryo-EM structure
cryo-EM structure = biological target: the molecule itself; test: cryo-EM structure
[3] = biological target: B2; test: cryo-EM structure

Sequence of insect Toll receptor ectodomain (insect (species not stated)) (P08953 28-807): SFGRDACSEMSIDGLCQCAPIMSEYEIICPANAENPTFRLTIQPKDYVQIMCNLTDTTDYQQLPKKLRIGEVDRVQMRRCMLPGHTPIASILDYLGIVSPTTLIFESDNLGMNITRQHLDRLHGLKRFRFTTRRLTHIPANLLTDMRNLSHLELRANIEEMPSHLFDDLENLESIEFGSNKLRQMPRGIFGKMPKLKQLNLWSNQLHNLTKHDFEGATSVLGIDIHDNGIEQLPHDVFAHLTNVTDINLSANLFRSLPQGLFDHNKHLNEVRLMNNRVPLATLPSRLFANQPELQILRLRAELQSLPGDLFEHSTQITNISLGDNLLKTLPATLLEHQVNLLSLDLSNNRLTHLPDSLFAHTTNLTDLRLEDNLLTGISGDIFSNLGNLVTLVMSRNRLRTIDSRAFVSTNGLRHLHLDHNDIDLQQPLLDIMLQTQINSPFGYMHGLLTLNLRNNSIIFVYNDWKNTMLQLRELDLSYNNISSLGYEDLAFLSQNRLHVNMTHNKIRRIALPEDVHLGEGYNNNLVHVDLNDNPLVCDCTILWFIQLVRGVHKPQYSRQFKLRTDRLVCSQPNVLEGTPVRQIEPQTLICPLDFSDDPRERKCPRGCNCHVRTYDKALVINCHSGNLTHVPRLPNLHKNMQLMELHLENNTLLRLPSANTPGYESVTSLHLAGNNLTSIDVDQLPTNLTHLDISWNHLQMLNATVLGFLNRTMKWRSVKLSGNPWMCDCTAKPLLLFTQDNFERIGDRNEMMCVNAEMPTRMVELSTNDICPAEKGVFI

With “insect cytokine ligand Spatzle (from UniProt P48607 26-326)” as the molecule, how does the stoichiometry N (Toll per Spatzle (2:2)) [1] read?
The stoichiometry N (Toll per Spatzle (2:2)) was 1.

B1: photosynthetic AB-GAPDH, A2B2 hetero-tetramer (glyceraldehyde 3-phosphate dehydrogenase) from spinach (complex)
chain 1: KLKVAINGFGRIGRNFLRCWHGRKDSPLDVVVINDTGGVKQASHLLKYDSILGTFDADVKTAGDSAISVDGKVIKVVSDRNPVNLPWGDMGIDLVIEGTGVFVDRDGAGKHLQAGAKKVLITAPGKGDIPTYVVGVNEEGYTHADTIISNASCTTNCLAPFVKVLDQKFGIIKGTMTTTHSYTGDQRLLDASHRDLRRARAACLNIVPTSTGAAKAVALVLPNLKGKLNGIALRVPTPNVSVVDLVVQVSKKTFAEEVNAAFRESADNELKGILSVCDEPLVSIDFRCTDVSSTIDSSLTMVMGDDMVKVIAWYDNEWGYSQRVVDLADIVANKWQ
chain 2: KLKVAINGFGRIGRNFLRCWHGRKDSPLDVVVVNDSGGVKSATHLLKYDSILGTFKADVKIIDNETFSIDGKPIKVVSNRDPLKLPWAELGIDIVIEGTGVFVDGPGAGKHIQAGAKKVIITAPAKGSDIPTYVVGVNEKDYGHDVANIISNASCTTNCLAPFVKVLDEELGIVKGTMTTTHSYTGDQRLLDASHRDLRRARAAALNIVPTSTGAAKAVSLVLPQLKGKLNGIALRVPTPNVSVVDLVVNIEKVGVTAEDVNNAFRKAAAGPLKGVLDVCDIPLVSVDFRCSDFSSTIDSSLTMVMGGDMVKVVAWYDNEWGYSQRVVDLADLVANKWPGLEGSVASGDPLEDFCKDNPADEECKLYE
For B1, which “stoichiometry N” value [2] is on record?
The value was 2 A2B2 tetramers per oligomer and 4 A2B2 tetramers per oligomer and 5 A2B2 tetramers per oligomer.

Does B2 bind (cryo-EM structure)?
Result: binds

B3: photosynthetic GAPDH A-subunit from spinach (natural protein, UniProt P19866 66-401, looked up)
chain: KLKVAINGFGRIGRNFLRCWHGRKDSPLDVVVINDTGGVKQASHLLKYDSILGTFDADVKTAGDSAISVDGKVIKVVSDRNPVNLPWGDMGIDLVIEGTGVFVDRDGAGKHLQAGAKKVLITAPGKGDIPTYVVGVNEEGYTHADTIISNASCTTNCLAPFVKVLDQKFGIIKGTMTTTHSYTGDQRLLDASHRDLRRARAACLNIVPTSTGAAKAVALVLPNLKGKLNGIALRVPTPNVSVVDLVVQVSKKTFAEEVNAAFRESADNELKGILSVCDEPLVSIDFRCTDVSSTIDSSLTMVMGDDMVKVIAWYDNEWGYSQRVVDLADIVANKWQ
Does B3 bind [3]?
Result: binds
